These results are taken from US20200123233A1.

To fix the notation:
B1: 214-F8 15GS 214-F8 (VHH)
chain: EVQLVESGGDLVQAGGSLRLSCVASGSTYSINAMGWYRQAPGKLRELVAAFRTGGSTDYADSVKGRFTISRDTAKNTVYLQMNSLKPEDTAVYYCNAEVIYYPYDYWGQGTQVTVSSGGGGSGGGGSGGGGSEVQLVESGGDLVQAGGSLRLSCVASGSTYSINAMGWYRQAPGKLRELVAAFRTGGSTDYADSVKGRFTISRDTAKNTVYLQMNSLKPEDTAVYYCNAEVIYYPYDYWGQGTQVTVSS
B2: 213-E6 5GS 212-C12 (VHH)
chain: EVQLVESGGGLVQAGASLRLSCAASGSTLSRYGVGWFRQAPGKERELVASVDWSGSRTYYADSVKGRFTISRDNAKNTGYLQMNSLKPDDTAVYYCAADSSVVPGIEKYDDWGLGTQVTVSSGGGGSEVQLVESGGGLVQPGGSLRLSCAASGFTFGSSDMSWVRQAPGKGPEWVSGINSGGGRTLYADSVKGRFTISRDNAKNTLYLQMNSLKSEDTAVYYCATDLYGSSWYTDYWSQGTQVTVSS
B3: 213-E6 25GS 214-E8 (VHH)
chain: EVQLVESGGGLVQAGASLRLSCAASGSTLSRYGVGWFRQAPGKERELVASVDWSGSRTYYADSVKGRFTISRDNAKNTGYLQMNSLKPDDTAVYYCAADSSVVPGIEKYDDWGLGTQVTVSSGGGGSGGGGSGGGGSGGGGSGGGGSEVQLVESGGGSVQAGGSLRLSCAASGGTFNPYVMAWFRQAPGNEREFVARIRWSGGDAYYDDSVKGRFAITRDAAKNTVHLQMNSLKPEDTAVYYCAAATYGYGSYTYGGSYDLWGQGTQVTVSS
B4: 214-E8 25GS 212-C12 (VHH)
chain: EVQLVESGGGSVQAGGSLRLSCAASGGTFNPYVMAWFRQAPGNEREFVARIRWSGGDAYYDDSVKGRFAITRDAAKNTVHLQMNSLKPEDTAVYYCAAATYGYGSYTYGGSYDLWGQGTQVTVSSGGGGSGGGGSGGGGSGGGGSGGGGSEVQLVESGGGLVQPGGSLRLSCAASGFTFGSSDMSWVRQAPGKGPEWVSGINSGGGRTLYADSVKGRFTISRDNAKNTLYLQMNSLKSEDTAVYYCATDLYGSSWYTDYWSQGTQVTVSS
B5: 213-E6 15GS 213-H7 (VHH)
chain: EVQLVESGGGLVQAGASLRLSCAASGSTLSRYGVGWFRQAPGKERELVASVDWSGSRTYYADSVKGRFTISRDNAKNTGYLQMNSLKPDDTAVYYCAADSSVVPGIEKYDDWGLGTQVTVSSGGGGSGGGGSGGGGSEVQLVESGGGLVQAGGSLRLSCAASGRTLSSYRMGWFRQAPGKEREFISTISWNGRSTYYADSVKGRFIFSEDNAKNTVYLQMNSLKPEDTAVYYCAAALIGGYYSDVDAWSYWGPGTQVTVSS
B6: 213-E6 25GS 212-C12 (VHH)
chain: EVQLVESGGGLVQAGASLRLSCAASGSTLSRYGVGWFRQAPGKERELVASVDWSGSRTYYADSVKGRFTISRDNAKNTGYLQMNSLKPDDTAVYYCAADSSVVPGIEKYDDWGLGTQVTVSSGGGGSGGGGSGGGGSGGGGSGGGGSEVQLVESGGGLVQPGGSLRLSCAASGFTFGSSDMSWVRQAPGKGPEWVSGINSGGGRTLYADSVKGRFTISRDNAKNTLYLQMNSLKSEDTAVYYCATDLYGSSWYTDYWSQGTQVTVSS
B7: 214-E8 15GS 213-H7 (VHH)
chain: EVQLVESGGGSVQAGGSLRLSCAASGGTFNPYVMAWFRQAPGNEREFVARIRWSGGDAYYDDSVKGRFAITRDAAKNTVHLQMNSLKPEDTAVYYCAAATYGYGSYTYGGSYDLWGQGTQVTVSSGGGGSGGGGSGGGGSEVQLVESGGGLVQAGGSLRLSCAASGRTLSSYRMGWFRQAPGKEREFISTISWNGRSTYYADSVKGRFIFSEDNAKNTVYLQMNSLKPEDTAVYYCAAALIGGYYSDVDAWSYWGPGTQVTVSS
B8: 214-E8 5GS 212-C12 (VHH)
chain: EVQLVESGGGSVQAGGSLRLSCAASGGTFNPYVMAWFRQAPGNEREFVARIRWSGGDAYYDDSVKGRFAITRDAAKNTVHLQMNSLKPEDTAVYYCAAATYGYGSYTYGGSYDLWGQGTQVTVSSGGGGSEVQLVESGGGLVQPGGSLRLSCAASGFTFGSSDMSWVRQAPGKGPEWVSGINSGGGRTLYADSVKGRFTISRDNAKNTLYLQMNSLKSEDTAVYYCATDLYGSSWYTDYWSQGTQVTVSS
B9: NB6-18GS-NB6 (VHH)
chain: EVQLVESGGGLVQAGGSLRLSCAASGPTFSADTMGWFRQAPGKEREFVATIPWSGGIAYYSDSVKGRFTMSRDNAKNTVDLQMNSLKPEDTALYYCAGSSRIYIYSDSLSERSYDYWGQGTQVTVSSGGGGSGGGGSGGGGGGGSEVQLVESGGGLVQAGGSLRLSCAASGPTFSADTMGWFRQAPGKEREFVATIPWSGGIAYYSDSVKGRFTMSRDNAKNTVDLQMNSLKPEDTALYYCAGSSRIYIYSDSLSERSYDYWGQGTQVTVSSAAAEQKLISEEDLNGAAHHHHHH
B10: 213-E6 25GS 213-E6 (VHH)
chain: EVQLVESGGGLVQAGASLRLSCAASGSTLSRYGVGWFRQAPGKERELVASVDWSGSRTYYADSVKGRFTISRDNAKNTGYLQMNSLKPDDTAVYYCAADSSVVPGIEKYDDWGLGTQVTVSSGGGGSGGGGSGGGGSGGGGSGGGGSEVQLVESGGGLVQAGASLRLSCAASGSTLSRYGVGWFRQAPGKERELVASVDWSGSRTYYADSVKGRFTISRDNAKNTGYLQMNSLKPDDTAVYYCAADSSVVPGIEKYDDWGLGTQVTVSS
B11: 214-E8 15GS 212-C12 (VHH)
chain: EVQLVESGGGSVQAGGSLRLSCAASGGTFNPYVMAWFRQAPGNEREFVARIRWSGGDAYYDDSVKGRFAITRDAAKNTVHLQMNSLKPEDTAVYYCAAATYGYGSYTYGGSYDLWGQGTQVTVSSGGGGSGGGGSGGGGSEVQLVESGGGLVQPGGSLRLSCAASGFTFGSSDMSWVRQAPGKGPEWVSGINSGGGRTLYADSVKGRFTISRDNAKNTLYLQMNSLKSEDTAVYYCATDLYGSSWYTDYWSQGTQVTVSS
B12: LG212C12 (VHH)
VHH: EVQLVESGGGLVQPGGSLRLSCAASGFTFGSSDMSWVRQAPGKGPEWVSGINSGGGRTLYADSVKGRFTISRDNAKNTLYLQMNSLKSEDTAVYYCATDLYGSSWYTDYWSQGTQVTVSS
B13: LG212F6 (VHH)
VHH: EVQLVESGGGLVQPGGSLRLSCAASGFTFGSYDMSWVRQAPGKGSEWVSHINTGGGSTTYADSVKGRFTISRDNAKNTLYLQMSSLKPEDTAVYYCATGLYGGSTDDYWGQGTQVTVSS
B14: LG212B12 (VHH)
VHH: EVQLVESGGGLVQPGGSLRLSCAASGFTFGNYDMSWVRQAPGKGPEWVSGINTGGSTLYADSVKGRFTISRDNAKNTLYLQMNSLKSEDTAVYYCAKDLYGSTWYTDYWSQGTQVTVSS

Some results are limits rather than exact numbers.

The target in the first assay is Rabies virus glycoprotein G, strain CVS-11 (Challenge Virus Standard-11, ATCC VR 959) (Rabies virus, strain CVS-11). Kind of assay: cell-based or functional assay.
In turn, B1 showed a CVS neutralizing antibody titre (RFFIT): IU/mg of 650 IU/mg, a CVS neutralizing antibody titre (RFFIT): IU/ml of 13 IU/ml, a CVS neutralizing antibody titre (RFFIT): IU/nM of 17.2 IU/nM and a CVS neutralizing antibody titre (RFFIT): nM IC50 of 1.79 nM. This molecule also came in with a Potency (IU/nM) increase versus monovalent of 63.7 fold.
B2 returned a CVS neutralizing antibody titre (RFFIT): IU/mg of 385 IU/mg, a CVS neutralizing antibody titre (RFFIT): IU/ml of 385 IU/ml, a CVS neutralizing antibody titre (RFFIT): IU/nM of 10 IU/nM and a CVS neutralizing antibody titre (RFFIT): nM IC50 of 3.21 nM. The same molecule had a Potency (IU/nM) increase versus monovalent of 6.3 fold.
B3 yielded a CVS neutralizing antibody titre (RFFIT): IU/mg of 657 IU/mg, a CVS neutralizing antibody titre (RFFIT): IU/ml of 46 IU/ml, a CVS neutralizing antibody titre (RFFIT): IU/nM of 1.84 IU/nM and a CVS neutralizing antibody titre (RFFIT): nM IC50 of 1.68 nM. The Potency (IU/nM) increase versus monovalent was 2.3 fold.
For the molecule B4, the CVS neutralizing antibody titre (RFFIT): IU/mg was 573 IU/mg, the CVS neutralizing antibody titre (RFFIT): IU/ml is 70.5 IU/ml, the CVS neutralizing antibody titre (RFFIT): IU/nM was 1.6 IU/nM and the CVS neutralizing antibody titre (RFFIT): nM IC50 was 1.94 nM. Moreover, the Potency (IU/nM) increase versus monovalent amounted to 1.5 fold.
B5: the CVS neutralizing antibody titre (RFFIT): IU/mg amounted to 4250 IU/mg, the CVS neutralizing antibody titre (RFFIT): IU/ml stood at 3760 IU/ml, the CVS neutralizing antibody titre (RFFIT): IU/nM amounted to 93.7 IU/nM and the CVS neutralizing antibody titre (RFFIT): nM IC50 is 0.26 nM. The molecule further showed a Potency (IU/nM) increase versus monovalent of 107 fold.
B6: the CVS neutralizing antibody titre (RFFIT): IU/mg came to 248 IU/mg, the CVS neutralizing antibody titre (RFFIT): IU/ml was 1290 IU/ml, the CVS neutralizing antibody titre (RFFIT): IU/nM was found to be 6.7 IU/nM and the CVS neutralizing antibody titre (RFFIT): nM IC50 was found to be 4.79 nM. Further, the Potency (IU/nM) increase versus monovalent was found to be 4.2 fold.
As for B7, the CVS neutralizing antibody titre (RFFIT): IU/mg was found to be 8220 IU/mg, the CVS neutralizing antibody titre (RFFIT): IU/ml worked out at 1890 IU/ml, the CVS neutralizing antibody titre (RFFIT): IU/nM was 230 IU/nM and the CVS neutralizing antibody titre (RFFIT): nM IC50 is 0.14 nM. The same molecule had a Potency (IU/nM) increase versus monovalent of 605 fold.
On the same counts, the results for B8 are 214 IU/mg, 171 IU/ml, 5.68 IU/nM, 5.65 nM and 5.2 fold.
Turning to B9, the CVS neutralizing antibody titre (RFFIT): IU/mg is < 2.38 IU/mg, the CVS neutralizing antibody titre (RFFIT): IU/ml is < 0.5 IU/ml, the CVS neutralizing antibody titre (RFFIT): IU/nM is < 0.07 IU/nM and the CVS neutralizing antibody titre (RFFIT): nM IC50 was > 725 nM.
Molecule B10 yielded a CVS neutralizing antibody titre (RFFIT): IU/mg of 300 IU/mg, a CVS neutralizing antibody titre (RFFIT): IU/ml of 21 IU/ml, a CVS neutralizing antibody titre (RFFIT): IU/nM of 8.29 IU/nM and a CVS neutralizing antibody titre (RFFIT): nM IC50 of 3.76 nM. The Potency (IU/nM) increase versus monovalent amounted to 6.4 fold.
The matching figures for B11: 322 IU/mg, 998 IU/ml, 8.7 IU/nM, 3.69 nM and 8 fold.

In the next assay the target is Rabies virus glycoprotein G, Challenge Virus Standard (CVS)-11 strain (Rabies virus, strain CVS-11 (genotype 1 Lyssavirus)) (UniProt O92284). Kind of assay: cell-based or functional assay.
Chain of Rabies virus glycoprotein G, Challenge Virus Standard (CVS)-11 strain (Rabies virus, strain CVS-11 (genotype 1 Lyssavirus)) (O92284 20-524 limits assumed): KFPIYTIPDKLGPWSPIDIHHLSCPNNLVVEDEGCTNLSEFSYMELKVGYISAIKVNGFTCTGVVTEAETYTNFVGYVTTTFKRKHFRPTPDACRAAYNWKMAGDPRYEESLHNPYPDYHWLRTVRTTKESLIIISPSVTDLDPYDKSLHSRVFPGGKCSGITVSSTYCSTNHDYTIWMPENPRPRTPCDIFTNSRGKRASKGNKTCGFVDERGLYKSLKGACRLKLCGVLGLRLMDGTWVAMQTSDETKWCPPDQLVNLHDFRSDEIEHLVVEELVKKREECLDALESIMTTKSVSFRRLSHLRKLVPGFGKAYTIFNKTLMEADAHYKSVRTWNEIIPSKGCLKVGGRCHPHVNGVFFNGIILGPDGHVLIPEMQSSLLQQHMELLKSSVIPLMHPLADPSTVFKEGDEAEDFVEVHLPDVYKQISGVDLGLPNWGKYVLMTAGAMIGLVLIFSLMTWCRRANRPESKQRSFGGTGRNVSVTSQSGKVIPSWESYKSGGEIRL
Turning to B12, the CVS-11 neutralizing antibody titer (RFFIT), IU/mg is 308 IU/mg; the CVS-11 neutralizing antibody titer (RFFIT), IU/ml came to 394 IU/ml; the CVS-11 neutralizing antibody titer (RFFIT), IU/µM is 4.6 IU/µM; the CVS-11 neutralizing antibody titer (RFFIT), nM IC50 is 7.55 nM.
Consider B13, for which the CVS-11 neutralizing antibody titer (RFFIT), IU/mg was found to be 114 IU/mg; the CVS-11 neutralizing antibody titer (RFFIT), IU/ml was 122 IU/ml; the CVS-11 neutralizing antibody titer (RFFIT), IU/µM turned out to be 1.71 IU/µM; the CVS-11 neutralizing antibody titer (RFFIT), nM IC50 stood at 17.7 nM.
On to B14, for which the CVS-11 neutralizing antibody titer (RFFIT), IU/mg came out at 20 IU/mg; the CVS-11 neutralizing antibody titer (RFFIT), IU/ml stood at 31 IU/ml; the CVS-11 neutralizing antibody titer (RFFIT), IU/µM came to 0.3 IU/µM; the CVS-11 neutralizing antibody titer (RFFIT), nM IC50 is 101 nM.
